Experimental data as given in patent US20250171542A1.

Biological target: human PD-L1 expressed on cell surface (human) (UniProt Q9NZQ7)
Assay: cell-based or functional assay

Chain of human PD-L1 expressed on cell surface (human) (Q9NZQ7 19-290 limits assumed): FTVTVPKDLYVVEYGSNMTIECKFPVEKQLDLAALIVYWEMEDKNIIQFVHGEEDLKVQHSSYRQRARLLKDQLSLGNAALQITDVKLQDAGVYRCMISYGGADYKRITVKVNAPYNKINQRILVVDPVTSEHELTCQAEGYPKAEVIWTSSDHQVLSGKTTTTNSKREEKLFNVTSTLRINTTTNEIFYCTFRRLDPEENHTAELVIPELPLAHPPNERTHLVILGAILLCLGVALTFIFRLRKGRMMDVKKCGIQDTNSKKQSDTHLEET

| Substance | IC50 (nM), Promega PD-1/PD-L1 blockade reporter assay, another assay [nM] |
| --- | --- |
| SGN-PD-L1 analogue anti-PD-L1 antibody (BioIntron) | 0.68 |
| Atezolizumab analogue (BioIntron) (antibody) | 0.33 |
